Laboratory results published in US20120052092A1 (IMPERIAL INNOVATIONS, published 2012).

Target: T1, factor H binding protein (wild type, variant 1) (Neisseria meningitidis, UniProt E6MV22 20-274)
T1 sequence: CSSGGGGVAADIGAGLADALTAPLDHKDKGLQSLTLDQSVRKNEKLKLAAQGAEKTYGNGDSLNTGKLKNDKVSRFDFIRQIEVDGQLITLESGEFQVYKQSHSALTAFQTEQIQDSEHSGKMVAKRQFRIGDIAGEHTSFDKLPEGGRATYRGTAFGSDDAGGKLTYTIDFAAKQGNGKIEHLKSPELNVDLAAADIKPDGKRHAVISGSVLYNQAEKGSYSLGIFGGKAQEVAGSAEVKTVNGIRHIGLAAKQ
Assay: derived from binding studies (SPR)

B1: fH67 (CCPs 6 and 7 of factor H) (other)
chain: TLKPCDYPDIKHGGLYHENMRRPYFPVAVGKYYSYYCDEHFETPSGSYWDHIHCTQDGWSPAVPCLRKCYFPYLENGYNQNYGRKFVQGKSIDVACHPGYALPKAQTTVTCMENGWSPTPRCI
notes: domain: CCPs 6 and 7; also called CCPs 67; Factor H domains 6 & 7
ΔG (calculated from KD): -11 kcal/mol
